{"source": "patent US20090075340A1", "target": "HLA-Cw4 on LCL 721.221-Cw4 cells (human)", "assay": "cell-based or functional assay", "data": [{"substance": "KIR2DL1 expressed on YTS-2DL1 NK cells (from UniProt P43626 22-348)", "values": [{"measurement": "killing of LCL 721.221-Cw4 cells by YTS-2DL1 in the absence of any anti-KIR mAb", "value": 5, "unit": "%"}]}]}
